Measured values reported in US20150225755A1, “Ergothioneine Production Through Metabolic Engineering” (priority 2012, published 2015).

Key:
[1] = target: EgtB (Mycolicibacterium smegmatis, UniProt A0R5N0); test: EgtB activity using hercynine (2) and Cys as substrates; assay type: biochemical, Mycobacterium smegmatis
Description: (§1) Two different assays were developed for both EgtB and OvoA catalysis (FIG. 3). Both EgtB and OvoA are proposed to be oxidases,^[9-10] which catalyze the oxidative coupling between His and Cys to form the C—S bond. At the same time, sulfur is oxidized to sulfoxide. The overall process is a four-electron oxidation process (FIG. 1) similar to the case of the isopenicillin N synthase.^[12] In the initial report by Seebeck, they monitored the reaction by monitoring the absorption changes at 260 nm because the oxidative products (3 or 6, FIG. 1) have absorptions in this region. However, it is not very sensitive. Oxygen is needed because there was no detectable product formation under anaerobic conditions. Based on this feature, we developed the EgtB and OvoA activity assays by monitoring the oxygen consumption rate (FIG. 3-I-B) using the NeoFoxy oxygen electrode (FIG. 3-I-A). This assay (FIG. 3-I-B) was used as the routine assay to optimize the conditions for EgtB and OvoA activities.
According to the initial reports from Seebeck,^[9-10] EgtB and OvoA distinguish themselves from each other by both their substrate preferences and their product C—S bond regio-selectivity (FIG. 1). The C—S bond in ergothioneine (5) is located at the histidine ε-carbon, while for ovothiol, the C—S bond is located at the histidine δ-carbon (8). Their substrate preferences are also different. […]

[2] = target: OvoA (Erwinia tasmaniensis, UniProt B2VFD8); test: OvoA activity, oxygen consumption assay / kinetic analysis; assay type: biochemical; settings: air-saturated HEPES buffer
Description: as §1
(§2) For oxygenase or oxidase-catalyzed reaction, potential problems include the presence of side-reactions, non-productive oxygen consumption, or oxidative inactivation of enzyme itself. Multiple activity assays will provide useful information to analyze those situations. To achieve this goal, besides the oxygen consumption assay, we have also developed a ^1H-NMR assay to directly monitor the product formation (FIG. 3-II). In ^1H-NMR, the chemical shifts of the imidazole H-atoms in both the products (3 and 6, FIG. 3-II) and the substrates (1 and 2) are well-separated from the rest of the reaction mixture. Thus, the reaction mixture can be analyzed routinely without the need of a product separation. In FIG. 3-II-B (OvoA catalysis), the signals with chemical shifts at 6.93 ppm and 7.70 ppm are assigned to the two histidine imidazole H-atoms. The signal at 7.83 ppm is from the imidazole H-atom of the oxidative coupling product 6. While for the oxidative product 3 (EgtB catalysis), its imidazole H-atom has a chemical shift of 7.10 ppm (FIG. 3-II-B). […]

[3] = tested on: C[N+](C)(C)[C@@H](Cc1cnc[nH]1)C(=O)[O-]; test: as above; assay type: biochemical, Erwinia tasmaniensis; settings: other: air-saturated HEPES buffer; coupling with Cys
Description: as §1, §2

[4] = tested on: N[C@@H](CS)C(=O)O; test: as above; assay type: biochemical, Erwinia tasmaniensis; settings: other: air-saturated HEPES buffer; coupling with hercynine (2)
Description: as §1, §2

[5] = target: T1, NcEgt-1 (Neurospora crassa, UniProt Q7RX33); test: NcEgt-1 catalysed oxidative coupling of hercynine (2) and Cys to form 4; assay type: biochemical
T1 sequence (Q7RX33 whole entry, looked up): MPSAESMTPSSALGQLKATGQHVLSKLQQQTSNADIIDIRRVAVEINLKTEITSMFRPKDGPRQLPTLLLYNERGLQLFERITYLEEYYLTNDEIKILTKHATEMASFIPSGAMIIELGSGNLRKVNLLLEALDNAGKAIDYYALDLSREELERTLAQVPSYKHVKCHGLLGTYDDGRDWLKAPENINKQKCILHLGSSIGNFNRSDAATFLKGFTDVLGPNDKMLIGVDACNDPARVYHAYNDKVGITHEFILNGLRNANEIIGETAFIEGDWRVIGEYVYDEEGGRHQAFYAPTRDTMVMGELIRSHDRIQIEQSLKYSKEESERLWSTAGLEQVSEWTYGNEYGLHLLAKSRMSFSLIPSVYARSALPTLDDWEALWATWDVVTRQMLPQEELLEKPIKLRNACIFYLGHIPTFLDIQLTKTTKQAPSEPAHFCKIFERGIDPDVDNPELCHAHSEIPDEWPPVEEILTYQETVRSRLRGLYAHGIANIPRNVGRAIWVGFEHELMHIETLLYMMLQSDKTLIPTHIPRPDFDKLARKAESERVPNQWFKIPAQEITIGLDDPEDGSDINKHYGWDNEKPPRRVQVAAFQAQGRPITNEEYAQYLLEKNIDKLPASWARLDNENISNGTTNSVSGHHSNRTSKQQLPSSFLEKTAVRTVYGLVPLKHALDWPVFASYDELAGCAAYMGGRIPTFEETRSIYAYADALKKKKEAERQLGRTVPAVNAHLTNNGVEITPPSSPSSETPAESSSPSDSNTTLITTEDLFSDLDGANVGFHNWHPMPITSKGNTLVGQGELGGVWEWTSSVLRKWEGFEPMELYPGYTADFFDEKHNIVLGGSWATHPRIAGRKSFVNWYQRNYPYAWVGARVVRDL
Description: In the above section, we have successfully solved the EgtE problems, which enable ergothioneine production through metabolic engineering. However, the original ergothioneine biosynthetic pathway (FIG. 1A) is not efficient. To solve this problem, we initiated the search for enzymes that can oxidatively couples hercynine (2) and Cys directly as outlined in FIG. 2. Two of such enzymes (OvoA in FIG. 1B and NcEgt-1 from Neurospora crassa^[13]) have been identified by a combination of bioinformatics analysis and activity analysis using oxygen and ^1H-NMR assays.
Based on this exciting discovery, we have also examined another protein NcEgt-lfrom Neurospora crassa^[13].

N[C@@H](CS)C(=O)O [Cys, cysteine]
recognition as substrate by EgtB [1]: cannot recognize Cys as the substrate

C[N+](C)(C)[C@@H](Cc1cnc[nH]1)C(=O)[O-] [hercynine]
kcat for the oxidative coupling between Cys and hercynine (2) [2]: 4.5 ± 0.083 s⁻¹

OvoA (Erwinia tasmaniensis Et1/99)
Km [3]: 395 ± 30 µM | Km [4]: 3190 ± 410 µM

B1: NcEgt-1: enzyme from Neurospora crassa that catalyzes oxidative coupling of hercynine and cysteine (protein)
chain: MPSAESMTPSSALGQLKATGQHVLSKLQQQTSNADIIDIRRVAVEINLKTEITSMFRPKDGPRQLPTLLLYNERGLQLFERITYLEEYYLTNDEIKILTKHATEMASFIPSGAMIIELGSGNLRKVNLLLEALDNAGKAIDYYALDLSREELERTLAQVPSYKHVKCHGLLGTYDDGRDWLKAPENINKQKCILHLGSSIDKVGITHEFILNGLRNANEIIGETAFIEGDWRVIGEYVYDEEGGRHQAFYAPTRDTMVMGELIRSHDRIQIEQSLKYSKEESERLWSTAGLEQVSEWTYGNEYGLHLLAKSRMSFSLIPSVYARSALPTLDDWEALWATWDVVTRQMLPQEELLEKPIKLRNACIFYLGHIPTFLDIQLTKTTKQAPSEPAHFCKIFERGIDPDVDNPELCHAHSEIPDEWPPVEEILTYQETVRSRLRGLYAHGIANIPRNVGRAIWVGFEHELMHIETLLYMMLQSDKTLIPTHIPRPDFDKLARKAESERVPNQWFKIPAQEITIGLDDPEDGSDINKHYGWDNEKPPRRVQVAAFQAQGRPITNEEYAQYLLEKNIDKLPASWARLDNENISNGTTNSVSGHHSNRTSKQQLPSSFLEKTAVRTVYGLVPLKHALDWPVFASYDELAGCAAYMGGRIPTFEETRSIYAYADALKKKKEAERQLGRTVPAVNAHLTNNGVEITPPSSPSSETPAESSSPSDSNTTLITTEDLFSDLDGANVGFHNWHPMPITSKGNTLVGQGELGGVWEWTSSVLRKWEGFEPMELYPGYTADFFDEKHNIVLGGSWATHPRIAGRKSFVNWYQRNYPYAWVGARVVRDL
modifications: Neurospora crassa OR74A
notes: enzyme from Neurospora crassa that catalyzes oxidative coupling of hercynine and cysteine
activity of 2→4 conversion compared with OvoA [5]: same order of magnitude as OvoA
